Experimental data from patent US20240034801A1 (BEIJING HANMI PHARMACEUTICAL, published 2024).

Tests used:
[1] = biological target: T1, recombinant human PD-L1 (Sino Biological Inc., catalog number 100 84-H08H) (human, UniProt Q9NZQ7 19-239); assay: ELISA, recombinant human PD-L1 coated (FIG. 8A)
T1 construct: Bought protein coated on the ELISA plate
Procedure: (§1) The detailed process is as follows: a 96-well high-adsorption ELISA plate (Costar, catalog number 42592) was coated with 1 μg/mL recombinant human PD-L1 (Sino Biological Inc., catalog number 100 84-H08H) or human 4-1BB (Sino Biological Inc., catalog number 10041-H08H) at 100 μL per well using carbonate buffer solution, pH=9.6 at 4° C. overnight. The plate was wash 5 times with PBST, and then blocked using PBST with 1% BSA 300 μL/well and incubated at 25° C. for 1 hour, and then washed 5 times with PBST. The heterodimeric antibody samples serially diluted in PBST with 1% BSA and the control were added, 100 μL per well and incubated at 25° C. for 1 hour. The plate was washed 5 times with PBST. The horseradish peroxidase-labeled anti-human IgG antibody (Chemicon, catalog number AP309P) diluted 1:10000 in PBST with 1% BSA was then added, 100 μL per well, and incubated at 25° C. for 1 hour. The plate was […] with PBST. The colorimetric substrate TMB was added, 100 μL/well, and developed at room temperature for 10 minutes. 1 M H₂SO₄, was added, 100 μL/well, to stop the development. The absorbance at 450 nm was read on a microplate reader.

[2] = biological target: T2, recombinant human 4-1BB (Sino Biological Inc., catalog number 10041-H08H) (human, UniProt Q07011 24-186); assay: ELISA, human 4-1BB coated (FIG. 8B; assay format inferred from the order of the methods)
T2 construct: Bought protein coated on the ELISA plate
Procedure: as §1

T1 sequence (Q9NZQ7 19-239 limits assumed): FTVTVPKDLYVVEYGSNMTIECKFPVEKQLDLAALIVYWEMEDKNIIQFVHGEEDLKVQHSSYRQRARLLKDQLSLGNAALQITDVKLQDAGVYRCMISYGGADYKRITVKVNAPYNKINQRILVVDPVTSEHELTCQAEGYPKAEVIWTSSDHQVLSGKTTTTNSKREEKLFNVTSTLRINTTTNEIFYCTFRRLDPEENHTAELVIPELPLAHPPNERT

binding result [1]: binds
binding result [2]: binds
B1: anti-PD-L1/anti-4-1BB heterodimeric antibody BH3120h (bispecific antibody, human IgG1, kappa, N297A)
heavy 1: not shown
light 1: DIQMTQSPSSLSASVGDRVTITCKASQDVHTAVAWIQQKPGKSPKLLIYSASNRYTGVPSRFSGSGSGTDFTFTISSLQPEDIATYYCQQHYITPLTFGQGTKLEIKRTVAAPSVFIFPPSDEQLKSGTASVVCLLNNFYPREAKVQWKVDNALQSGNSQESVTEQDSKDSTYSLSSTLTLSKADYEKHKVYACEVTHQGLSSPVTKSFNRGEC
heavy 2: QVQLVQSGAEVKKPGSSVKVSCKASGYTFTSYWINWVRQAPGQGLEWMGNIYPSDSYTNYNQKFKDRVTITADKSTSTAYMELSSLRSEDTAVYYCARLYYGSSPFDYWGQGTTVTVSSASTKGPSVFPLAPSSKSTSGGTAALGCLVKDYFPEPVTVSWNSGALTSGVHTFPAVLQSSGLYSLSSVVTVPSSSLGTQTYICNVNHKPSNTKVDKKVEPKSCDKTHTCPPCPAPELLGGPSVFLFPPKPKDTLMISRTPEVTCVVVDVSHEDPEVKFNWYVDGVEVHNAKTKPREEQYASTYRVVSVLTVLHQDWLNGKEYKCKVSNKALPAPIEKTISKAKGQPREPQVYTEPPSRDELTKNQVSLTCLVKGFYPSDIAVEWESNGQPENNYKTTPPVLDSDGSFFLLSVLTVDKSRWQQGNVFSCSVMHEALHNHYTQKSLSLSPGK
light 2: not shown
notes: also called anti-PD-L1/anti-4-1BB bispecific antibody; anti-PD-L1/anti-4-1BB heterodimeric antibody molecule
